# According to patent US20240115701A1:
# How the values were obtained:
# [1] = target: MabSelect Sure Protein A ligand (protein A resin, GE Healthcare); experiment: batch resin-slurry partitioning on MabSelect Sure protein A resin; Elute: 20 mM NaAcetate, pH 3.5
# [2] = target: MabSelect Sure Protein A ligand (protein A resin, GE Healthcare); experiment: batch resin-slurry partitioning on MabSelect Sure protein A resin; Elute: 20 mM NaAcetate, pH 3.5; reference mAb2
# [3] = target: MabSelect Sure Protein A ligand (protein A resin, GE Healthcare); experiment: batch resin-slurry partitioning on MabSelect Sure protein A resin; High salt wash: 10 mM NaPhosphate, pH 6.5, 0.5M NaCl
# [4] = target: MabSelect Sure Protein A ligand (protein A resin, GE Healthcare); experiment: batch resin-slurry partitioning on MabSelect Sure protein A resin; Strip: 100 mM acetic acid
# [5] = target: MabSelect Sure Protein A ligand (protein A resin, GE Healthcare); experiment: partitioning on protein A resin under loading conditions; reference mAb3
# [6] = target: MabSelect Sure Protein A ligand (protein A resin, GE Healthcare); experiment: batch resin-slurry partitioning on MabSelect Sure protein A resin; Equil/wash: 10 mM NaPhosphate, pH 6.5; reference mAb2
# [7] = target: MabSelect Sure Protein A ligand (protein A resin, GE Healthcare); experiment: batch resin-slurry partitioning on MabSelect Sure protein A resin; Strip: 100 mM acetic acid; reference mAb1
# [8] = target: MabSelect Sure Protein A ligand (protein A resin, GE Healthcare); experiment: batch resin-slurry partitioning on MabSelect Sure protein A resin; Equil/wash: 10 mM NaPhosphate, pH 6.5; reference mAb1
# [9] = target: MabSelect Sure Protein A ligand (protein A resin, GE Healthcare); experiment: batch resin-slurry partitioning on MabSelect Sure protein A resin; High salt wash: 10 mM NaPhosphate, pH 6.5, 0.5M NaCl; reference mAb2
# [10] = target: MabSelect Sure Protein A ligand (protein A resin, GE Healthcare); experiment: batch resin-slurry partitioning on MabSelect Sure protein A resin; High salt wash: 10 mM NaPhosphate, pH 6.5, 0.5M NaCl; reference mAb1
# [11] = target: MabSelect Sure Protein A ligand (protein A resin, GE Healthcare); experiment: batch resin-slurry partitioning on MabSelect Sure protein A resin; Equil/wash: 10 mM NaPhosphate, pH 6.5
# [12] = target: MabSelect Sure Protein A ligand (protein A resin, GE Healthcare); experiment: batch resin-slurry partitioning on MabSelect Sure protein A resin; Strip: 100 mM acetic acid; reference mAb2
# [13] = target: MabSelect Sure Protein A ligand (protein A resin, GE Healthcare); experiment: batch resin-slurry partitioning on MabSelect Sure protein A resin; Elute: 20 mM NaAcetate, pH 3.5; reference mAb1
Substance,"log KP (partition coefficient, bound/free) [1]",log α (log KP PLBL2 - log KP mAb2) [2],"log KP (partition coefficient, bound/free) [3]","log KP (partition coefficient, bound/free) [4]",log α (log KP PLBL2 - log KP mAb3) [5],log α (log KP PLBL2 - log KP mAb2) [6],log α (log KP PLBL2 - log KP mAb1) [7],log α (log KP PLBL2 - log KP mAb1) [8],log α (log KP PLBL2 - log KP mAb2) [9],log α (log KP PLBL2 - log KP mAb1) [10],"log KP (partition coefficient, bound/free) [11]",log α (log KP PLBL2 - log KP mAb2) [12],log α (log KP PLBL2 - log KP mAb1) [13]
phospholipase B-like 2 (PLBL2) (enzyme),0,-0.3,0,0,-2,-2,0,-2,-2,-2,0,0,
phospholipase B-like 2 (PLBL2),,,,,,,,,,,,,0
